Measured values reported in US20240076386A1 (Pfizer, published 2024).

How the values were obtained:
[1] = molecular target: T1, human E-selectin, cell-surface expressed (human, UniProt P16581 22-610); test: cell-based or functional assay
T1 sequence: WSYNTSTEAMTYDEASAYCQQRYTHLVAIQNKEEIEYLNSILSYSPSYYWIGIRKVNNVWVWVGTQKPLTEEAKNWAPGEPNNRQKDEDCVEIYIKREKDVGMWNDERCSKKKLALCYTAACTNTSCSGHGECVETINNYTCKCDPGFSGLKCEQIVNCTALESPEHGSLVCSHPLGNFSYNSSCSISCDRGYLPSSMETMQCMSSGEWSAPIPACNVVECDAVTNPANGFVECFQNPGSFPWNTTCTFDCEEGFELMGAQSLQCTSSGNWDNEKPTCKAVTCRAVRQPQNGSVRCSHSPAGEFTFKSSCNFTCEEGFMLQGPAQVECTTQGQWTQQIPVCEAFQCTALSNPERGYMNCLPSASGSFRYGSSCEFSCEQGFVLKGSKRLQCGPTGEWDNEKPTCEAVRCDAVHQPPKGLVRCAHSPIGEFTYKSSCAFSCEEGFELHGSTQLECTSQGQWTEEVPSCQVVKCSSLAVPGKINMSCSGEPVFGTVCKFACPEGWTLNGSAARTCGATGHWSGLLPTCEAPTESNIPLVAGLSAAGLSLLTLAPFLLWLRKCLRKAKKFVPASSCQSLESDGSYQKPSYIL

[2] = molecular target: T2, cynomolgus monkey E-selectin, cell-surface expressed (cynomolgus monkey, UniProt P16581 22-610 (human entry)); test: cell-based or functional assay
T2 chain: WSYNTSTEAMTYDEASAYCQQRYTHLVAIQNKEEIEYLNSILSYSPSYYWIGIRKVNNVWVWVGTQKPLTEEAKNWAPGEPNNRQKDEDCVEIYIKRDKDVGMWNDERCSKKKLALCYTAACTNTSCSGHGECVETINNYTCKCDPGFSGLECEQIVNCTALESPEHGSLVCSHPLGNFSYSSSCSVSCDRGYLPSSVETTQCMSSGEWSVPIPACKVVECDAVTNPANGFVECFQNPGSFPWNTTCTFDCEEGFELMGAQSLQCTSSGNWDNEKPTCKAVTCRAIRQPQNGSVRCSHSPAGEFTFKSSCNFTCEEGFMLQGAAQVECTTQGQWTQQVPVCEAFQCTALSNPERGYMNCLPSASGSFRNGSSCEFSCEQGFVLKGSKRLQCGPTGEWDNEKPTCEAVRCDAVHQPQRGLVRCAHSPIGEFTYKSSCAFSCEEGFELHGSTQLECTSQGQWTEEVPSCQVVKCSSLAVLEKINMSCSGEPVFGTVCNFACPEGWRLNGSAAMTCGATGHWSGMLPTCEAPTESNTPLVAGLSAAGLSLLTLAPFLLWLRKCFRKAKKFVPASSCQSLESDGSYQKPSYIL

[3] = molecular target: T3, recombinant histidine-tagged human E-selectin (Sino Biologicals; 13025-H08H) (human, UniProt P16581 22-556); test: cell-based or functional assay
T3 sequence (looked up): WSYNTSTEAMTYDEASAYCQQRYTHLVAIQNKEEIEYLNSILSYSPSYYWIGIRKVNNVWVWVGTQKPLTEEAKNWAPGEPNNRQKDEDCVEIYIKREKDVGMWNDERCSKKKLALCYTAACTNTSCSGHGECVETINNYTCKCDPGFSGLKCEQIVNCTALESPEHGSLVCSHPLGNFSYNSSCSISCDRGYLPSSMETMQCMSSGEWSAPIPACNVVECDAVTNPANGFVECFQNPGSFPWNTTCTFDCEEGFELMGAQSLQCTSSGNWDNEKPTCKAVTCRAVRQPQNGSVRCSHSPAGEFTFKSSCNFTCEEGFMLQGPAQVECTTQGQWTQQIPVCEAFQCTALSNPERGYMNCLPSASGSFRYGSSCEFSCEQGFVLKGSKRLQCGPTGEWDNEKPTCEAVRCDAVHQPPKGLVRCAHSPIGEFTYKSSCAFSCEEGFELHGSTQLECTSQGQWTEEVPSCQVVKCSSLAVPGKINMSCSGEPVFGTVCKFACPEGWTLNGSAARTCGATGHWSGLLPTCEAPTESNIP

[4] = molecular target: T1, human E-selectin, cell-surface expressed; test: competition ELISA on CHO cells vs sialyl Lewis ligand, further assays
Experimental: (§1) CHO cells expressing E-selectin were seeded at 12,500 cells per well into a 96 well tissue culture plate and incubated at 37° C., 5% CO₂ for 48 hours to form a confluent monolayer. Plates were subsequently washed twice with 200 μL of calcium magnesium free PBS. Anti-E-selectin antibodies or an IgG1 isotype control (IgG control) were added to the assay in the presence of a small synthetic conjugate of biotinylated, sialyl Lewis A polyacrylamide (Carbosynth LLC, OS45446) or sialyl Lewis X polyacrylamide (Glycotech, 01-045) with streptavidin/horseradish peroxidase (100 μL total) and incubated at 37° C., 5% CO₂ for 2 hours. Plates were then washed twice with 200 μL of calcium and magnesium free PBS. Following the incubation, the cells were washed twice with 200 μL of wash buffer containing 2 mM of calcium chloride (50 mM TRIS [trisaminomethane], 150 mM sodium chloride; 0.05% polysorbate 20, pH 7.4; 2 mM calcium chloride). Signal was developed by adding 100 μL of 1-Step Ultra TMB substrate (Thermo Scientific, 34028) and incubating for 30 minutes at room temperature. Reactions were stopped using 2 M of sulfuric acid and absorbance was read at 450 nm (Spectramax M5e). Data were analyzed and graphed using GraphPad Prism software (Version 8.0.2).

[5] = molecular target: T2, cynomolgus monkey E-selectin, …; test: as above
Experimental: as §1

Flow adhesion neutralization of HL-60 cells, CHO cells, human E-selectin, IC50 [1]: 4.25 to 4.56 nM
Neutralization of Human Neutrophils, CHO cells, human E-selectin, flow, IC50 [1]: 2.87 to 4.65 nM
Static adhesion neutralization of HL-60 cells, CHO cells, human E-selectin, IC50 [1]: 3.36 to 4.7 nM
Flow adhesion neutralization of HL-60 cells, CHO cells, cynomolgus monkey E-selectin, IC50 [2]: 4.32 to 4.35 nM
Neutralization of Human Neutrophils, CHO cells, cynomolgus E-selectin, flow, IC50 [2]: 9.45 to 16.3 nM
Static adhesion neutralization of HL-60 cells, CHO cells, cynomolgus monkey E-selectin, IC50 [2]: 3.84 nM
Flow adhesion neutralization of HL-60 cells, soluble recombinant human E-selectin, IC50 [3]: 13.3 to 15.9 nM
Neutralization of SCD patient cells, soluble human recombinant protein, flow, IC50 (mean) [3]: 12.4 nM
IC50 [4]: 2.33 nM
IC50 [5]: 1.49 nM
B1: optimized anti-E-selectin antibody 1444 (antibody, human IgG1, kappa, V domains shown)
VH: EVQLVESGGGLVQPGGSLRLSCAASGYAIRSAYMHWVRQAPGKGLEWVARIDPANGNTIYVDSVTGRFTISADNAKNSAYLQMNSLRAEDTAVYYCAMDLYSTSEYWGQGTLVTVSS
VL: DIQMTQSPSSLSASVGDRVTITCKTSQNIERYLNWYQQKPGKAPKLLIYAASSLQSGVPSRFSGSGSGTDFTLTISSLQPEDFATYFCLQDNAWPLTFGQGTKVEIKR
notes: effector-null human IgG1, kappa
